Reference: patent US20240059799A1 (Pfizer, published 2024)
Substitutions are numbered along the chain they refer to.

T1: recombinant human TL1A (human, UniProt O95150 71-251)
T1 construct: The ELISA method says only 'recombinant TL1A' coated on plates; homotrimeric cytokine; also called TNFSF15; recombinant TL1A
T1 chain: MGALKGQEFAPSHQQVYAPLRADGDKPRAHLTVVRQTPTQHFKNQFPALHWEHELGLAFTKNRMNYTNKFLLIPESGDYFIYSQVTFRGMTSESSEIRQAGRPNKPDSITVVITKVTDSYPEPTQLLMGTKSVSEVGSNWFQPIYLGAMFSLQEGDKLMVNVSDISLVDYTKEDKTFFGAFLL

B1: TL1A-0258 (antibody, human IgG1, kappa, V domains shown)
VH: QVQLVQSGAEVKKPGASVKVSCKASGYDYTYYGISWVRQAPGQGLEWMGWISTYNDNTHYAQKLQGRVTMTTDTSTSTAYMELRSLRSDDTAVYYCARESYYGSGAFRGGMDVWGQGTTVTVSS
VL: DIQMTQSPSSLSASVGDRVTITCRASQSVSSYLAWYQQKPGKAPKLLIYDASNRATGVPSRFSGSGSGTDFTLTISSLQPEDFATYYCQQRSNWPWTFGQGTKVEIKR
notes: human IgG1 effector-function-minimized / human kappa
B2: TL1A-0259 (antibody, V domains shown)
VH: B1 VH with F107H
VL: B1 VL
notes: IgG1 effector-minimized/kappa
B3: TL1A-0260 (antibody, human IgG1, kappa, V domains shown)
VH: B1 VH with D56T, N57G, Q62P, K63S
VL: B1 VL
notes: as for B1
B4: TL1A-0261 (antibody, human IgG1, kappa, V domains shown)
VH: B1 VH with D56T, N57G, Q62P, K63S, F107H
VL: B1 VL
notes: as for B1
B5: TL1A-0262 (antibody, human IgG1, kappa, V domains shown)
VH: B1 VH with D56T, N57G
VL: B1 VL
notes: as for B1
B6: TL1A-0263 (antibody, human IgG1, kappa, V domains shown)
VH: B1 VH with D56T, N57G, F107H
VL: B1 VL
notes: as for B1
B7: TL1A-0264 (antibody, human IgG1, kappa, V domains shown)
VH: B1 VH with D56T, N57V, Q62P, K63S
VL: B1 VL
notes: as for B1
B8: TL1A-0265 (antibody, human IgG1, kappa, V domains shown)
VH: B1 VH with D56T, N57V, Q62P, K63S, F107H
VL: B1 VL
notes: as for B1
B9: TL1A-0266 (antibody, human IgG1, kappa, V domains shown)
VH: B1 VH with D56T, Q62P, K63S
VL: B1 VL
notes: as for B1
B10: TL1A-0267 (antibody, human IgG1, kappa, V domains shown)
VH: B1 VH with D56T, Q62P, K63S, F107H
VL: B1 VL
notes: as for B1
B11: TL1A-0268 (antibody, V domains shown)
VH: B1 VH with N55G, D56G, Q62P, K63S
VL: B1 VL
notes: IgG1 effector-minimized/kappa
B12: TL1A-0269 (antibody, V domains shown)
VH: B1 VH with N55G, D56G, Q62P, K63S, F107H
VL: B1 VL
notes: IgG1 effector-minimized/kappa
B13: TL1A-0270 (antibody, human IgG1, kappa, V domains shown)
VH: B1 VH with Y29F, T30S, Q62P, K63S
VL: B1 VL
notes: as for B1
B14: TL1A-0271 (antibody, human IgG1, kappa, V domains shown)
VH: B1 VH with Y29F, T30S, Q62P, K63S, F107H
VL: B1 VL
notes: as for B1
B15: TL1A-0272 (antibody, human IgG1, kappa, V domains shown)
VH: B1 VH with Y29F, T30S
VL: B1 VL
notes: as for B1
B16: TL1A-0273 (antibody, human IgG1, kappa, V domains shown)
VH: B1 VH with Y29F, T30S, F107H
VL: B1 VL
notes: as for B1
B17: TL1A-0274 (antibody, human IgG1, kappa, V domains shown)
VH: B1 VH with Y29F, T30S, D56T, N57G, Q62P, K63S
VL: B1 VL
notes: as for B1
B18: TL1A-0275 (antibody, human IgG1, kappa, V domains shown)
VH: B1 VH with Y29F, T30S, D56T, N57G, Q62P, K63S, F107H
VL: B1 VL
notes: as for B1
B19: TL1A-0276 (antibody, human IgG1, kappa, V domains shown)
VH: B1 VH with Y29F, T30S, D56T, N57G
VL: B1 VL
notes: as for B1
B20: TL1A-0277 (antibody, human IgG1, kappa, V domains shown)
VH: B1 VH with Y29F, T30S, D56T, N57G, F107H
VL: B1 VL
notes: as for B1
B21: TL1A-0278 (antibody, human IgG1, kappa, V domains shown)
VH: B1 VH with Y29F, T30S, D56T, N57V, Q62P, K63S
VL: B1 VL
notes: as for B1
B22: TL1A-0279 (antibody, human IgG1, kappa, V domains shown)
VH: B1 VH with Y29F, T30S, D56T, N57V, Q62P, K63S, F107H
VL: B1 VL
notes: as for B1
B23: TL1A-0280 (antibody, human IgG1, kappa, V domains shown)
VH: B1 VH with Y29F, T30S, D56T, Q62P, K63S
VL: B1 VL
notes: as for B1
B24: TL1A-0281 (antibody, human IgG1, kappa, V domains shown)
VH: B1 VH with Y29F, T30S, D56T, Q62P, K63S, F107H
VL: B1 VL
notes: as for B1
B25: TL1A-0282 (antibody, V domains shown)
VH: B1 VH with Y29F, T30S, N55G, D56G, Q62P, K63S
VL: B1 VL
notes: IgG1 effector-minimized/kappa
B26: TL1A-0283 (antibody, V domains shown)
VH: B1 VH with Y29F, T30S, N55G, D56G, Q62P, K63S, F107H
VL: B1 VL
notes: IgG1 effector-minimized/kappa
B27: TL1A-0284 (antibody, human IgG1, kappa, V domains shown)
VH: B1 VH with Y29F, I34V, Q62P, K63S
VL: B1 VL
notes: as for B1
B28: TL1A-0285 (antibody, human IgG1, kappa, V domains shown)
VH: B1 VH with Y29F, I34V, Q62P, K63S, F107H
VL: B1 VL
notes: as for B1
B29: TL1A-0286 (antibody, human IgG1, kappa, V domains shown)
VH: B1 VH with Y29F, I34V
VL: B1 VL
notes: as for B1
B30: TL1A-0287 (antibody, human IgG1, kappa, V domains shown)
VH: B1 VH with Y29F, I34V, F107H
VL: B1 VL
notes: as for B1
B31: TL1A-0288 (antibody, human IgG1, kappa, V domains shown)
VH: B1 VH with Y29F, I34V, D56T, N57G, Q62P, K63S
VL: B1 VL
notes: as for B1
B32: TL1A-0289 (antibody, human IgG1, kappa, V domains shown)
VH: B1 VH with Y29F, I34V, D56T, N57G, Q62P, K63S, F107H
VL: B1 VL
notes: as for B1
B33: TL1A-0290 (antibody, V domains shown)
VH: B1 VH with Y29F, I34V, D56T, N57G
VL: B1 VL
notes: IgG1 effector-minimized/kappa
B34: TL1A-0292 (antibody, human IgG1, kappa, V domains shown)
VH: B1 VH with Y29F, I34V, D56T, N57V, Q62P, K63S
VL: B1 VL
notes: as for B1
B35: TL1A-0293 (antibody, human IgG1, kappa, V domains shown)
VH: B1 VH with Y29F, I34V, D56T, N57V, Q62P, K63S, F107H
VL: B1 VL
notes: as for B1
B36: TL1A-0294 (antibody, human IgG1, kappa, V domains shown)
VH: B1 VH with Y29F, I34V, D56T, Q62P, K63S
VL: B1 VL
notes: as for B1
B37: TL1A-0295 (antibody, human IgG1, kappa, V domains shown)
VH: B1 VH with Y29F, I34V, D56T, Q62P, K63S, F107H
VL: B1 VL
notes: as for B1

Molecular target: T1, recombinant human TL1A
Assay: competition ELISA on coated recombinant TL1A; competitor biotinylated TL1A-0002
Method: For this competition ELISA assay procedure, 96-well high binding plates (Corning, product number 3590) were coated with 1 μg/mL recombinant TL1A in 100 μL/well in Phospate Buffered Saline (PBS) overnight at 4° C. Plates were then blocked in PBS+0.02% casein solution and washed with PBS+0.05% Tween-20 following standard ELISA protocol. […] Plates were washed with PBS+0.05% Tween-20 following standard ELISA protocol, and Streptavidin-HRP (Southern Biotech, product number 7100-05) diluted to 1:10,000 in assay buffer was added to plates and incubated for 25-30 minutes at room temperature. Next, the plates were washed with PBS+0.05% Tween-20 following standard ELISA protocol, and then TMB substrate (BioFX Laboratories, catalog number TMBW-0100-01) was added to plates. Reactions were stopped after approximately 5 minutes by adding 0.18 M ortho-phosphoric acid to each well and absorbance was read at 450 nm.

Binder | Bioactivity relative to TL1A-0002 [fold] | IC50 [nM]
B1 | 2.2 | 10.9
B2 | 3.7 | 18.4
B3 | 1.3 | 6.8
B4 | 1.1 | 5.6
B5 | 1.4 | 7.3
B6 | 1.2 | 6.2
B7 | 3.1 | 15.8
B8 | 1.7 | 8.7
B9 | 1.3 | 6.6
B10 | 1.3 | 6.8
B11 | 9.6 | 48.2
B12 | 7.5 | 37.7
B13 | 2.3 | 11.5
B14 | 2.1 | 10.6
B15 | 2.3 | 11.6
B16 | 2.2 | 10.9
B17 | 2 | 10.1
B18 | 1.8 | 9
B19 | 2.1 | 10.6

Binder | Bioactivity relative to TL1A-0002 [fold] | IC50 [nM]
B20 | 2 | 10.2
B21 | 1.8 | 9.1
B22 | 2.1 | 10.5
B23 | 1.6 | 8.2
B24 | 2.6 | 13.1
B25 | 10.3 | 52.1
B26 | 48.9 | 246
B27 | 2 | 10.3
B28 | 1.7 | 8.6
B29 | 2.3 | 11.6
B30 | 2 | 10.1
B31 | 1.6 | 8
B32 | 1.6 | 7.9
B33 | 4.2 | 21
B34 | 1.9 | 9.6
B35 | 1.9 | 9.7
B36 | 1.6 | 8
B37 | 2.4 | 12.3
